# In article doi:10.1101/2022.03.18.484870 (bioRxiv, 2022):
# B1: His-mSTIC2 (recombinant mature Arabidopsis thaliana STIC2, aa 49-182) (natural protein)
# chain: VNGLFGGGNKDNNSEDGQSKAGIFGNMQNMYETVKKAQMVVQVEAVRVQKELAAAEFDGYCAGELVKVTLSGNQQPIRTDITEAAMELGSEKLSQLVTEAYKDAHAKSVVAMKERMSDLAQSLGMPPGLSEGMK
# Tests used:
# [1] = target: T1, Alb4C-His (recombinant His-tagged C-terminus of Alb4, aa 334-499) (UniProt Q9FYL3 334-499); assay: ITC
# T1 sequence: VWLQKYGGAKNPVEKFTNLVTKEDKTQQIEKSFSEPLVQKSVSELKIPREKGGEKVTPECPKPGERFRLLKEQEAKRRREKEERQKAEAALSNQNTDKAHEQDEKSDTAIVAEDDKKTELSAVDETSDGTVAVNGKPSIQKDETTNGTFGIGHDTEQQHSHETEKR
# [2] = target: B1; assay: peptide or protein array
# [3] = target: B1; assay: ITC
Binder,binding result [2],also measured
B1,–,Kd [1]: 16.6 µM
GERFRQLKEQEKRSK [Alb3 15mer peptide spot (aa 386-400)],binds,–
PKPGERFRLLKEQEA [Alb4 15mer peptide spot (aa 394-408)],binds,–
"Alb3C-His (recombinant His-tagged C-terminus of Alb3, aa 350-462) (domain or fragment) VYLRKLGGAKPNMDENASKIISAGRAKRSIAQPDDAGERFRQLKEQEKRSKKNKAVAKDTVELVEESQSESEEGSDDEEEEAREGALASSTTSKPLPEVGQRRSKRSKRKRTV",–,Kd [3]: 136 µM
